{
  "source": "paper PMC12003327",
  "key": {"[1]": {"molecular_target": "recombinant human integrin alphaV beta3 (αvβ3) (human) (UniProt P06756)"}, "[2]": {"molecular_target": "recombinant human integrin alphaV beta3 (αvβ3) (human) (UniProt P06756)", "remark": "listed apart in the source"}, "[3]": {"molecular_target": "recombinant human integrin alphaV beta3 (αvβ3) (human) (UniProt P06756)", "remark": "listed apart in the source"}},
  "data": [
    {"substance": "recombinant trimeric SARS-CoV-2 Omicron BA.1 spike protein (from UniProt P0DTC2 14-1273) (natural protein)", "values": [
      {"measurement": "inhibition of FAK activation by Omicron BA.1 in HL-mECs pretreated with Heparinase III", "setting": "[1]", "result": 48, "unit": "%"},
      {"measurement": "inhibition of FAK activation by Omicron BA.1 in HL-mECs pretreated with mAb anti-αvβ3", "setting": "[1]", "result": 54, "unit": "%"},
      {"measurement": "inhibition of FAK activation by Omicron BA.1 in HL-mECs pretreated with sodium chlorate", "setting": "[1]", "result": 48, "unit": "%"},
      {"measurement": "inhibition of pSrc activation by Omicron BA.1 in HL-mECs pretreated with Heparinase III", "setting": "[1]", "result": 66, "unit": "%"},
      {"measurement": "inhibition of pSrc activation by Omicron BA.1 in HL-mECs pretreated with mAb anti-αvβ3", "setting": "[1]", "result": 56, "unit": "%"},
      {"measurement": "inhibition of pSrc activation by Omicron BA.1 in HL-mECs pretreated with sodium chlorate", "setting": "[1]", "result": 65, "unit": "%"},
      {"measurement": "ERK phosphorylation in HL-mECs after infection with authentic Omicron BA.1 (western blot, against not infected cells) (fold increase)", "setting": "[2]", "result": 3.5},
      {"measurement": "inhibition of Omicron BA.1-induced ERK activation in HL-mECs pretreated with Heparinase III", "setting": "[2]", "result": 56, "unit": "%"},
      {"measurement": "inhibition of Omicron BA.1-induced ERK activation in HL-mECs pretreated with mAb anti-αvβ3", "setting": "[2]", "result": 44, "unit": "%"},
      {"measurement": "inhibition of Omicron BA.1-induced ERK phosphorylation in HL-mECs pretreated with sodium chlorate", "setting": "[2]", "result": 53, "unit": "%"},
      {"measurement": "phosphorylation of FAK in HL-mECs 1 h after infection with authentic Omicron BA.1 (western blot, against not infected cells) (fold increase)", "setting": "[3]", "result": 2.3},
      {"measurement": "phosphorylation of Src in HL-mECs 1 h after infection with authentic Omicron BA.1 (western blot, against not infected cells) (fold increase)", "setting": "[3]", "result": 1.8}
    ]}
  ]
}
